What was measured:
ICAM-1/Fc = ICAM-1/Fc (UniProt P05362); experiment: cell-based or functional assay
VCAM-1/Fc = VCAM-1/Fc (UniProt P19320); experiment: cell-based or functional assay
[1] = target: T1, His3E9-tagged β2 integrin cytoplasmic tail protein (UniProt P05107 724-769, not fully specified); experiment: competition binding assay, competitor at 0.001 to 4 µM against iodinated IRP-1 on immobilized β2 C-tail
T1 construct: domain: cytoplasmic tail; Expressed in E. coli (pET15b) or Saccharomyces; immobilized on Scintistrip plates; also called β2 C-tail; β2 integrin C-tail; not shown: His3E9 tag
T1 chain (looked up): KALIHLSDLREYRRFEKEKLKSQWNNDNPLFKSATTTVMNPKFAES
Experimental: (§1) The integrin C-tails were immobilized onto 96-well microtiter Scintistrip™ (Wallac) plates at concentrations between […] in volumes of 50-100 μl bicarbonate, pH 9.6, per well and were incubated at 4° C. overnight. Plates were dried and blocked in 350 μl/well sterile-filtered 1-2% Bovine Serum Albumin (BSA) dissolved in binding assay buffer and were incubated at room temperature for 1-2 hours. The wells were washed 3 times in binding assay buffer and dried just prior to addition of IRPs.
The binding assay format was either a competition/inhibition binding assay or a saturation binding assay. In the competition binding assay, radiolabeled IRPs were diluted to 25-100 nM in binding assay buffer with one potential modulator of binding (unlabelled IRPs, soluble C-tails or non-specific control polypeptides such as BSA). The assay was initiated with addition of 100 μl labeled IRPs/potential modulator solution to the blocked Scintistrip® wells (50,000-200,000 cpm/well), then incubated one hour at room temperature (22-24° C.) and stopped by rapidly washing in binding assay buffer three to five times. The saturation binding assays were performed similarly, except that a constant 1:20 ratio of radiolabeled:unlabeled IRPs were tested over a total concentration range of 0.01-30 μM. The plates were dried and scintillation was measured on a Wallac Model 1450 liquid scintillation counter after the detectors were normalized. Interwell crosstalk was corrected for with a test Scintistrip™ plate, containing in the G11, 100 μl of 25-100 nM radiolabeled IRP captured by anti-IRP monoclonal antibody 200A coated in the well at 20 μg/ml in bicarbonate buffer. The incubation times and conditions for the test plate were identical to the binding assay above.

[2] = target: T2, Bovine Serum Albumin (BSA) (bovine, UniProt P02769 25-607); experiment: radiolabelled IRP-1 on BSA-blocked Scintistrip wells
T2 construct: also called control peptide
T2 sequence (P02769 25-607 limits assumed): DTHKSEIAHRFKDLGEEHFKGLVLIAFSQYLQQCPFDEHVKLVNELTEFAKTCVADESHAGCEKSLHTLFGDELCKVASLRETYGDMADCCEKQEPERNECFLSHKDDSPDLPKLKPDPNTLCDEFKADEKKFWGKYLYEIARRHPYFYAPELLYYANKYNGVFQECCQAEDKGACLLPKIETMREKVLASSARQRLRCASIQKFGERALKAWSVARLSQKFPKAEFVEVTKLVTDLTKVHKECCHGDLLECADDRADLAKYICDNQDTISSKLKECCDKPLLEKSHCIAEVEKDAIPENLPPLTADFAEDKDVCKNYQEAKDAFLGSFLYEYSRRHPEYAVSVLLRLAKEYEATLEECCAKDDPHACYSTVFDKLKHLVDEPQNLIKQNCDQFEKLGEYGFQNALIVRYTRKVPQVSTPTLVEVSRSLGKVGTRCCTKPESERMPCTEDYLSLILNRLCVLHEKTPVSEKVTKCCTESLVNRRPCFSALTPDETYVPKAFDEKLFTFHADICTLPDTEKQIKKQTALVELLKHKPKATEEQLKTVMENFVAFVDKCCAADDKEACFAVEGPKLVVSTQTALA
Experimental: as §1
The binding assay format was either a competition/inhibition binding assay or a saturation binding assay. In the competition binding assay, radiolabeled IRPs were diluted to 25-100 nM in binding assay buffer with one potential modulator of binding (unlabelled IRPs, soluble C-tails or non-specific control polypeptides such as BSA). […] The plates were dried and scintillation was measured on a Wallac Model 1450 liquid scintillation counter after the detectors were normalized. […]
Binding was measured as counts of radiolabeled IRPs found in C-tail-coated wells above counts found in BSA-coated wells. Specific binding was assessed as counts found in C-tail-coated wells which were reduced with added unlabelled IRPs or soluble C-tails.

Sequence of ICAM-1/Fc (P05362 28-480 limits assumed): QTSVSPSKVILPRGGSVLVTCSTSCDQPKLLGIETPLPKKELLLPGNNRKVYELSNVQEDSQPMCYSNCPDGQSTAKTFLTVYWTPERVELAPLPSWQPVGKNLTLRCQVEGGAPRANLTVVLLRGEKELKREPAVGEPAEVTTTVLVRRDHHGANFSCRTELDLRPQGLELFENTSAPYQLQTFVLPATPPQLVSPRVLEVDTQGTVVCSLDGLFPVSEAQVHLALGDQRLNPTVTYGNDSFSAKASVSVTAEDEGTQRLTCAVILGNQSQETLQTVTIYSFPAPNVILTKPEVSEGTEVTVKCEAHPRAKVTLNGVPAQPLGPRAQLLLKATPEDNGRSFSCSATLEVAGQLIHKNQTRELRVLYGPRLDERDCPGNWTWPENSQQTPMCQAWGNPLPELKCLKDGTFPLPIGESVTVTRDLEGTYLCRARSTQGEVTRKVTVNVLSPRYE
Sequence of VCAM-1/Fc (P19320 25-698 limits assumed): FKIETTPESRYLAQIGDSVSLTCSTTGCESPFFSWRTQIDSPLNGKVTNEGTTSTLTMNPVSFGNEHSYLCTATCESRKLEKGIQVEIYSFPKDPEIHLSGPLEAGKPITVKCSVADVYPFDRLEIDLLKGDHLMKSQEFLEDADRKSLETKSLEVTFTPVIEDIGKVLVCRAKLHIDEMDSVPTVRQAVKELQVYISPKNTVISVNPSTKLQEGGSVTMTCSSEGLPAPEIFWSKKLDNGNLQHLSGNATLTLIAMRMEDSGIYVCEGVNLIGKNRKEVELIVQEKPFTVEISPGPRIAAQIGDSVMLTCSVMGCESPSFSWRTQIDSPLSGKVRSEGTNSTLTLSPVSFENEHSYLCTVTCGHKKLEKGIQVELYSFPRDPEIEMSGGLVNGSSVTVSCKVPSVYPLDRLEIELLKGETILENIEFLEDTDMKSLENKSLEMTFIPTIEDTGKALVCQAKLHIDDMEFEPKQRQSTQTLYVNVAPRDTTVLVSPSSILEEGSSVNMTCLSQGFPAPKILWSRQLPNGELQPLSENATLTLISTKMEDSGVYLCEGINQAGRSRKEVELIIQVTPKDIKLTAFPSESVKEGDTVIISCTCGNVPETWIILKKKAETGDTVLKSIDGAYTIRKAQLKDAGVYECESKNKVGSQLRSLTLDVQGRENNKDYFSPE

Molecule: LFA-1 (CD11a/CD18) on JY, JY-8 or transfected COS cells (from UniProt P20701 26-1170; P05107 23-769) (receptor)
- decrease in ICAM-1 adhesion of COS cells co-transfected with CD11a/CD18 and 3′HA B2-1, 5′HA B2-1, B2-1 PH or IRP-1 PH, 72 hours post-transfection, against vector control (ICAM-1/Fc): 50%
- decrease in static adhesion to ICAM-1 of JY-8 transfectants overexpressing IRP-1 against GFP control (basal and IL-8 stimulated) (ICAM-1/Fc): 40 to 50%
- highest flow rate at which ICAM-1 binding of JYIRP-2 cells was detected after static binding (ICAM-1/Fc): < 7.5 dynes/cm^2
- static adhesion of JY-8 cells expressing only GFP (control) to immobilized ICAM-1, IL-8 against basal level (ICAM-1/Fc): 3 to 4 fold
- static adhesion of JY-8 cells to ICAM-1, PMA against basal level (ICAM-1/Fc): > 4 fold
- static adhesion to ICAM-1 (basal or IL-8 induced) of JY-8 transfectants overexpressing IRP-2 against GFP transfectants (ICAM-1/Fc): 20%

Molecule: integrin α4β7 on JY or JY-8 cells (from UniProt P13612 34-1032; P26010 20-798) (receptor)
- IL-8 stimulated adhesion to VCAM-1 of JY-8 transfectants overexpressing B2-1 (VCAM-1/Fc): 50%
- static adhesion of JY-8 cells expressing only GFP (control) to immobilized VCAM-1, IL-8 against basal level (VCAM-1/Fc): 2 fold
- static adhesion of JY-8 cells to VCAM-1, PMA against basal level (VCAM-1/Fc): > 4 fold
- static adhesion to VCAM-1 (IL-8 induced) of JY-8 transfectants overexpressing IRP-2 against GFP transfectants (VCAM-1/Fc): 20%
- static adhesion to VCAM-1 of JY-8 transfectants overexpressing IRP-1, IL-8 stimulated (VCAM-1/Fc): 40%

B1: His-tagged IRP-1 (HisIRP-1), expressed in E. coli (other)
chain: MEDGVYEPPDLTPEERMELENIRRRKQELLVEIQRLREELSEAMSEVEGLEANEGSKTLQRNRKMAMGRKKFNMDPKKGIQFLVENELLQNTPEEIARFLYKGEGLNKTAIGDYLGEREELNLAVLHAFVDLHEFTDLNLVQALRQFLWSFRLPGEAQKIDRMMEAFAQRYCLCNPGVFQSTDTCYVLSFAVIMLNTSLHNPNVRDKPGLERFVAMNRGINEGGDLPEELLRNLYDSIRNEPFKIPEDDGNDLTHTFFNPDREGWLLKLGGRVKTWKRRWFILTDNCLYYFEYTTDKEPRGIIPLENLSIREVDDPRKPNCFELYIPNNKGQLIKACKTEADGRVVEGNHMVYRISAPTQEEKDEWIKSIQAAVSVDPFYEMLAARKKRISVKKKQEQP
notes: also called unlabelled IRP-1; clone S3 protein; not shown: N-terminal histidine tag encoded by pET15b
- percent decrease of iodinated IRP-1 binding [1]: ~75%

B2: IRP-1 Sec7 domain (recombinant, soluble competitor) (other)
chain: KFNMDPKKGIQFLVENELLQNTPEEIARFLYKGEGLNKTAIGDYLGEREELNLAVLHAFVDLHEFTDLNLVQALRQFLWSFRLPGEAQKIDRMMEAFAQRYCLCNPGVFQSTDTCYVLSFAVIMLNTSLHNPNVRDKPGLERFVAMNRGINEGGDLPEELLRNLYDSIRNEPFKI
- percent decrease of iodinated IRP-1 binding [1]: ~75%

B3: His-tagged B2-1 (HisB2-1), expressed in E. coli (other, human, UniProt Q15438 1-398, looked up)
chain: MEEDDSYVPSDLTAEERQELENIRRRKQELLADIQRLKDEIAEVANEIENLGSTEERKNMQRNKQVAMGRKKFNMDPKKGIQFLIENDLLKNTCEDIAQFLYKGEGLNKTAIGDYLGERDEFNIQVLHAFVELHEFTDLNLVQALRQFLWSFRLPGEAQKIDRMMEAFAQRYCQCNNGVFQSTDTCYVLSFAIIMLNTSLHNPNVKDKPTVERFIAMNRGINDGGDLPEELLRNLYESIKNEPFKIPEDDGNDLTHTFFNPDREGWLLKLGGGRVKTWKRRWFILTDNCLYYFEYTTDKEPRGIIPLENLSIREVEDSKKPNCFELYIPDNKDQVIKACKTEADGRVVEGNHTVYRISAPTPEEKEEWIKCIKAAISRDPFYEMLAARKKKVSSTKRH
notes: mature; also called cytohesin-1; not shown: N-terminal histidine tag encoded by pET15b
- percent decrease of iodinated IRP-1 binding [1]: ~75%

B4: iodinated IRP-1 (125I-labelled His-tagged IRP-1) (other)
chain: MEDGVYEPPDLTPEERMELENIRRRKQELLVEIQRLREELSEAMSEVEGLEANEGSKTLQRNRKMAMGRKKFNMDPKKGIQFLVENELLQNTPEEIARFLYKGEGLNKTAIGDYLGEREELNLAVLHAFVDLHEFTDLNLVQALRQFLWSFRLPGEAQKIDRMMEAFAQRYCLCNPGVFQSTDTCYVLSFAVIMLNTSLHNPNVRDKPGLERFVAMNRGINEGGDLPEELLRNLYDSIRNEPFKIPEDDGNDLTHTFFNPDREGWLLKLGGRVKTWKRRWFILTDNCLYYFEYTTDKEPRGIIPLENLSIREVDDPRKPNCFELYIPNNKGQLIKACKTEADGRVVEGNHMVYRISAPTQEEKDEWIKSIQAAVSVDPFYEMLAARKKRISVKKKQEQP
modifications: radiolabeled with 125I (Iodobead or lactoperoxidase/hydrogen peroxide method); positions not given
notes: also called radiolabeled IRP-1; not shown: His tag encoded by pET15b (non-kemptide-tagged)
- binding result [2]: no binding
